Measurements reported in PMC12363406, “Human IgE monoclonal antibodies define two unusual epitopes trapping dog allergen Can f 1 in different conformations” (Protein Science : A Publication of the Protein Society, 2025).
Values belong to the binder of their own block, whether it stands above or below them.

Target: T1, natural Can f 1 (Canis lupus familiaris (dog))
T1 construct: Can f 1, major dog allergen, lipocalin, Canis familiaris; isolated from the natural source; model in the complex with 1J11 Fab starts at Ala5; numbers count on: the mature protein; Natural preparation; also called nCan f 1
T1 sequence (chain, as listed by the source): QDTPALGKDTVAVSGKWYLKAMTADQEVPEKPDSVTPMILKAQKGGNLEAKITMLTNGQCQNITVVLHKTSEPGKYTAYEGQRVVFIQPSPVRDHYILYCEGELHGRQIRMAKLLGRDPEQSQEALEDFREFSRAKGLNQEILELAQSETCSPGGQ
Experiment: SPR; localized surface plasmon resonance (LSPR) on an OpenSPR (Nicoya Lifesciences)
Conditions: both partners purified

Kd: 3.6 ± 1.3 nM
B1: human IgE monoclonal antibody 12F3 (antibody, V domains shown)
VH: QVQLVQSGAEVQKPGSSVKVSCKASGGTFSRYPLIWVRQTPGQGLEWMGGIFPVIGRTNYAEKFQGRVTITADESTSTAYMELNSLTSEDTAVYYCARLDTYEILGYGTDVWGQGTTVTVSS
VL: EIVLTQSPATLSLSPGERATLSCRASESVSSSVAWYQQKFGQAPRLLIYDASNRATGIPARFSGSGSGTDFTLTISSLEPEDFAVYYCQLRSNWPPLTFGGGTKVQIK
notes: variable region as the heavy chain of m5 (PDB 9NPI); as the light chain of m5 (PDB 9NPI); Human IgE; details of isolation, production and purification are in Supplementary material; also called hIgE mAb 12F3; IgE mAb 12F3; source: B cell hybridomas from allergic subjects; copies: 2 + 2

Kd: 0.2 ± 0.1 nM
B2: human IgE monoclonal antibody 1J11 (antibody, V domains shown)
VH: QVQLVESGGGVVQPGSSLRLSCAVSGFTVRSYGMHWVRQAPGKGLEWVALILFDGTTKHYADSVKGRFTISRDNSKDTLYLQMTSLGAEDTAMYYCVRDFNQFVKRFVDGPAFDLWGQGTRVTVSS
VL: SYELTQPPSVSVSPGQTANITCSGDKLGDKFTSWYQQRPGQSPVLVIYQDIERPSGIPERFSGSNSGNTATLTISGTQALDEADYYCQAWDTSTVVFGGGTRLTVL
notes: variable region as the heavy chain of m4 (PDB 8VQF); as the light chain of m4 (PDB 8VQF); Human IgE; details of isolation, production and purification are in Supplementary material; also called hIgE mAb 1J11; IgE mAb 1J11; source: B cell hybridomas from allergic subjects; copies: 2 + 2
